{"source": "patent US20240270826A1", "about": "(NATIONAL RESEARCH COUNCIL OF CANADA, published 2024)", "binders": {"B1": {"name": "NRCoV2-1a VHH-Fc (Fc fusion)", "chain": "EVKLVQSGGGSVQPGGSLRLSCAASGSTLDYYAIGWFRQAPGKEREWVSCVSSSDGSTLYADSVKGRFTISRDNAKNTVYLQMNSLKPEDTAVYVCAADYSMRPLWVSRWHRDYEYWGQGTQVTVSS", "notes": "bivalent VHH-Fc"}, "B2": {"name": "NRCoV2-11a VHH-Fc (Fc fusion)", "chain": "EVQLQQSGGGLVQPGGSLRLSCAASGFTLDSYNIAWFRQAPGKEREWISYISRYYESTYYSDSVKGRFTTSRDGDKKTVSLQMNSLKSEDTAVYYCAARSRDFSSPISATDKYGSWGQGTQVTVSS", "notes": "bivalent VHH-Fc"}, "B3": {"name": "NRCoV2-S2H4 VHH-Fc (Fc fusion)", "chain": "QVQLVQSGGGLVQAGGSLRLSCAASGFTFNLYSIAWFRQAPGKEREGVSCINSGDRDSTTYYADSVKGRFTISRDNAKHTAYLQMDSLKPEDTAVYYCALVFGYTSRDYCLTPKRGNYWGQGTQVTVSS", "notes": "bivalent VHH-Fc"}, "B4": {"name": "NRCoV2-MRed25 VHH-Fc (Fc fusion)", "chain": "EVQLVESGGGLVQAGGSLRLSCAASGHTFSRYGMGWFRQAPGKEREFVAAISWRGDSTYYRDSVNGRFTISRDNAKNTVYLGMNSLKPEDTAVYYCAAEMWGTATIVASRYTYWGQGTQVTVSS", "notes": "bivalent VHH-Fc"}, "B5": {"name": "NRCoV2-1a VHH-Fc (Fc fusion)", "chain": "B1 chain", "notes": "bivalent VHH-Fc"}, "B6": {"name": "NRCoV2-11a VHH-Fc (Fc fusion)", "chain": "B2 chain", "notes": "bivalent VHH-Fc"}, "B7": {"name": "NRCoV2-SR02 VHH (VHH)", "VHH": "EVQLVDSGGGLVQAGGSLRLSCTASEFTLNYYSIGWFRQSPGKEREGVSCIRYSGGGIDYADSVKGRFTISRDNAKNTVYLTMNSLKPEDTAVYYCAADRLYSRACPTAGGRNYWGQGTQVTVSS"}, "B8": {"name": "NRCoV2-07 VHH (VHH)", "VHH": "QVQLVQSGGGLVQPGGSLRLSCAASGVTLDYYAIGWFRQAPGKEREAVSCISSNGRRNHYVASVRGRFTISRDNAKSTVYLQMNSLKPEDTAVYYCAAVQDVHGDNYYCTSPNEYNVWGQGTQVTVSS"}, "B9": {"name": "NRCoV2-03 VHH (VHH)", "VHH": "EVQLVSSGGGLVQAGGSLRLSCTASGITFSYYAMGWYRQAPGQPRELVASMSNMDSTIYADSVKGRFTISRDNAKTTIYLQMNNLKPEDTAVYFCNIYGPTYSTRRNEYWGQGTQVTVSS"}, "B10": {"name": "NRCoV2-11 VHH (VHH)", "VHH": "EVQLVSSGGGLVQPGGSLRLSCAASGSSLDSYSVSWFRQAPGKEREWISFISRYYSSTYYTDSVKGRFTTSRDGDQKTVHLQMNSLKPEDTAVYYCAARSRDFSSPFSATDTYTSWGQGTQVTVSS"}, "B11": {"name": "NRCoV2-15 VHH (VHH)", "VHH": "EVQLVSSGGGLVEAGGSLRLSCIASGSTSGRNTMGWFRQAPGKQREWVAIVSTSGATNYAGSVKGRFTLSRDNAKNAVYLQMNNLKPEDTAVYYCYAAYGGGGDYWGQGTQVTVSS"}, "B12": {"name": "NRCoV2-04 VHH (VHH)", "VHH": "AVQLVDSGGGLVQPGGSLRLSCAASGSPFSNVVMAWYRQAPGKQRERVAFISGGGIADYIMSVKGRFTISRDNAKNTVYLQMNSLKPEDTAVYYCWSSYESTWGQGTQVTVSS"}, "B13": {"name": "NRCoV2-06 VHH (VHH)", "VHH": "EVQLVQSGGGLVQAGESLRLSCAASVSTFSSYAMGWYRQAPGKQRELVASIGFVGATYYIDSVKGRFTISRDNAKKTAYLQMNDLKPDDTAVYYCNARHYGGSEYWGQGTQVTVSS"}, "B14": {"name": "NRCoV2-18 VHH (VHH)", "VHH": "EVQLVESGGGLVQAGGSLRLSCVASGITISGYNMAWWRQTRGKQTERVAFINSGGSTTYSDSVKGRFTISRDNGKNTAYLQMNSLNAEDTADYFCSLHTSHDYWGQGTQVTVSS"}, "B15": {"name": "NRCoV2-MRed04 VHH (VHH)", "VHH": "EVQLVESGGGLVQPGRSLRLSCAASGNSFSISTMGWFRQAPGKERELVASIWSDTTTSYADSVKGRFTISTDNTRTKVYLQMSSLNPEDTAVYYCAADRGFVVRGQYDYWGQGTQVTVSS"}, "B16": {"name": "NRCoV2-20 VHH (VHH)", "VHH": "EVQLQQSGGGLVQPGGSLRLSCAASGRTFSNYVVGWFRQAPQAPGKDHEFVAVISGSDTETYYADSVKGRFTISRDNAKNTVYLQMNSLKPEDTAVYYCAADRGMSYYYTRATEYYYWGQGTQVTVSS"}, "B17": {"name": "NRCoV2-10 VHH (VHH)", "VHH": "QLQLQESGGGLVQPGGSLTLSCAASGNTFSRSNMHWYRQAPGAQREWVAAISSRGISTYAYSAKGRFTISRDNAKNTVSLQMNSLKPEDTAVYYCYAADDLGDYWGQGTQVTVSS"}, "B18": {"name": "NRCoV2-17 VHH (VHH)", "VHH": "EVQLQQSGGGLVQTGGSLRLSCAAAGSPFSQLAMSWYRQISGKERAWVASISPTGNRSYSKIAKGRFTISRDNAKNTVTLQMTSLKPEDTAAYICQAANVNGGDYWGQGTQVTVSS"}, "B19": {"name": "NRCoV2-05 VHH (VHH)", "VHH": "EVKLVQSGGGLVQPGGSLRLSCAASGFIFSNYAMNWVRQAPGKGLEWVSGINSGGGDTRYADSVKGRFTVSRDNAKNTLYLQMNSLKPEDTGVYYCSKGPVSSYYGSGYDYRGQGTQVTVSS"}, "B20": {"name": "NRCoV2-SR13 VHH (VHH)", "VHH": "EVQLVESGGGLVTTGGSLRLSCATSGSRFGSKHMAWYRQAPGKQRDLVAAISSGGSTHYGSSVKGRFTISRDNAKSTVYLQMNSLNPEDTAVFYCNMGGWDYRSNTYIPGSRSDYWGQGTQVTVSS"}, "B21": {"name": "NRCoV2-SR01 VHH (VHH)", "VHH": "EVQLVQSGGGSVQAGGSLRLSCVASGFTFDNYAIGWFRQAPGKEREGVSCISGNGGVTIYADSVKGRFTISRDNAKNLVYLQMNSLKPEDTAVYYCAATGIRSTWSVYGCSRLAGPYDYWGQGTQVTVSS"}, "B22": {"name": "NRCoV2-14 VHH (VHH)", "VHH": "EVQLVSSGGGLVQAGGSLRLSCEASGTTFSHYAVGWYRQAPGKQREWVASISVFGSTTYGGSVAGRFTISRDNDKNTVDLQMNSLKPEDTAVYYCHAVNADIGGDYWGQGTQVTVSS"}, "B23": {"name": "NRCoV2-02 VHH (VHH)", "VHH": "EVQLVESGGGLVQAGGSLRLSCAASGFTFSNYAMNWVRQAPGKGLEWVSGISGRGDDTRYADSVKGRFTISRDNAKNTLFLQMRSLRPEDTGVYRCTKGPDLYYFGSGYSDRGQGTQVTVSS"}, "B24": {"name": "NRCoV2-1d VHH (VHH)", "VHH": "B1 chain with K3Q, Q6E, C50S, S57N, P88A, L105F, W106A, S108G"}}, "note": "Numbering of substitutions follows the chain as printed."}
{"target": "Human SARS-CoV-2_Wuhan S (SmT1) (SARS-CoV-2 (Wuhan), UniProt P0DTC2 14-1208)", "assay": "flow cytometry SVNA, VHH-Fc vs biotin-S binding to Vero E6 ACE2", "units": {"IC50": "nM", "IC99": "nM", "Imax %": "%"}}
{"binder": "B1", "IC50": 9.2, "IC99": 89.4, "Imax %": 94}
{"binder": "B2", "IC50": 9.7, "IC99": 67.6, "Imax %": 46}
{"target": "T1, SARS-CoV-2 S on CHO-S cells (SARS-CoV-2, UniProt P0DTC2 14-1273)", "T1 construct": "whole, on cells", "assay": "flow cytometry, CHO-S cells", "units": {"EC50": "nM"}}
{"binder": "B3", "Bmax": 7910, "EC50": 1}
{"binder": "B4", "Bmax": 4420, "EC50": 0.8}
{"binder": "B5", "Bmax": 17200, "EC50": 1.1}
{"binder": "B6", "Bmax": 12000, "EC50": 2}
{"target": "T2, Human SARS-CoV-2_Wuhan S (SmT1) (SARS-CoV-2 (Wuhan), UniProt P0DTC2 14-1208)", "assay": "SPR, VHH over immobilised S", "units": {"Kd": "nM"}}
{"binder": "B7", "Kd": 0.47}
{"binder": "B8", "Kd": 0.94}
{"binder": "B9", "Kd": 1.56}
{"binder": "B10", "Kd": 0.018}
{"binder": "B11", "Kd": 0.32}
{"binder": "B12", "Kd": 10.2}
{"binder": "B13", "Kd": 223}
{"binder": "B14", "Kd": 0.32}
{"binder": "B15", "Kd": 0.86}
{"binder": "B16", "Kd": 4.39}
{"binder": "B17", "Kd": 0.2}
{"binder": "B18", "Kd": 0.15}
{"binder": "B19", "Kd": 2.6}
{"binder": "B20", "Kd": 3.6}
{"binder": "B21", "Kd": 0.56}
{"binder": "B22", "Kd": 2.6}
{"binder": "B23", "Kd": 0.62}
{"binder": "B24", "Kd": 0.75}
{"target": "T2, Human SARS-CoV-2_Wuhan S (SmT1)", "assay": "SPR, VHH over immobilised S", "remark": "another data set of the same source", "units": {"Kd": "nM", "koff": "s⁻¹", "kon": "M⁻¹ s⁻¹"}}
{"binder": "B7", "Kd": 0.135, "koff": 0.000669, "kon": "4.98e+06"}
{"binder": "B8", "Kd": 0.939, "koff": 0.000355, "kon": 378000}
{"binder": "B9", "Kd": 1.56, "koff": 0.000181, "kon": 116000}
{"binder": "B10", "Kd": 0.0177, "koff": "1.71e-05", "kon": 964000}
{"binder": "B11", "Kd": 0.321, "koff": 0.000222, "kon": 691000}
{"binder": "B12", "Kd": 10.2, "koff": 0.0188, "kon": "1.84e+06"}
{"binder": "B13", "Kd": 223, "koff": 0.00456, "kon": 20500}
{"binder": "B14", "Kd": 0.318, "koff": "9.39e-05", "kon": 295000}
{"binder": "B15", "Kd": 0.863, "koff": 0.00131, "kon": "1.51e+06"}
{"binder": "B16", "Kd": 4.39, "koff": 0.0116, "kon": "2.64e+06"}
{"binder": "B17", "Kd": 0.199, "koff": 0.000116, "kon": 581000}
{"binder": "B18", "Kd": 0.154, "koff": "9.45e-05", "kon": 614000}
{"binder": "B19", "Kd": 2.57, "koff": 0.00709, "kon": "2.76e+06"}
{"binder": "B20", "Kd": 3.56, "koff": 0.00376, "kon": "1.06e+06"}
{"binder": "B21", "Kd": 0.564, "koff": 0.000805, "kon": "1.43e+06"}
{"binder": "B22", "Kd": 2.6, "koff": 0.00101, "kon": 389000}
{"binder": "B23", "Kd": 0.624, "koff": 0.00127, "kon": "2.04e+06"}
{"binder": "B24", "Kd": 0.75, "koff": 0.00105, "kon": "1.39e+06"}
{"target": "SARS-CoV spike (S) (SARS-CoV, UniProt P59594 14-1195)", "assay": "SPR, VHH over immobilised S", "units": {"Kd": "nM", "koff": "s⁻¹", "kon": "M⁻¹ s⁻¹"}}
{"binder": "B8", "Kd": 12.2, "koff": 0.00146, "kon": 120000}
{"binder": "B9", "binding result": "no binding"}
{"binder": "B10", "Kd": 0.014, "koff": "2.7e-05", "kon": "1.93e+06"}
{"binder": "B11", "binding result": "no binding"}
{"binder": "B12", "binding result": "no binding"}
{"binder": "B13", "binding result": "no binding"}
{"binder": "B15", "Kd": 300, "koff": 0.097, "kon": 323000}
{"binder": "B17", "binding result": "no binding"}
{"binder": "B18", "binding result": "no binding"}
{"binder": "B19", "binding result": "no binding"}
{"binder": "B21", "Kd": 0.154, "koff": 0.000105, "kon": 681000}
{"binder": "B22", "binding result": "no binding"}
{"binder": "B23", "binding result": "no binding"}
